± gives the standard error. This sample holds only a part of the variants without activity.
B1: glmS ribozyme (parent)
chain: AUAAAAGCGCCAGAACUACAGAAAUGUAGUUGACGAGGAGGAGGUUUAUCGAAUUUUCGGCGGAUGCCUCCAAA

What was measured:
Conditions in all cases: with glucosamine-6-phosphate
[1] = variants of: B1; assay: self-cleavage kobs at 160 uM GlcN6P; higher = faster cleavage; RNA array
Procedure, shortened: (§1)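 Ribozyme variants carrying barcodes were transcribed in situ on sequenced MiSeq chips by E. coli RNA polymerase and tracked at 37 °C with a hybridised Cy3 probe. They were exposed to 40 μM to 10 mM glucosamine-6-phosphate in HEPES/KCl/Mg(OAc)2 buffer. kobs came from exponential decay fits of normalised per-tile medians, and kcat and KM from weighted Michaelis–Menten fits.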

[2] = variants of: B1; assay: self-cleavage kobs at 2500 uM GlcN6P; higher = faster cleavage; RNA array
Procedure, shortened: as §1

[3] = variants of: B1; assay: self-cleavage kobs at 640 uM GlcN6P; higher = faster cleavage; RNA array
Procedure, shortened: as §1

[4] = variants of: B1; assay: self-cleavage kobs at 10000 uM GlcN6P; higher = faster cleavage; RNA array
Procedure, shortened: as §1

Variant | self-cleavage kobs at 160 uM GlcN6P [1] [s⁻¹] | self-cleavage kobs at 2500 uM GlcN6P [2] [s⁻¹] | self-cleavage kobs at 640 uM GlcN6P [3] [s⁻¹] | self-cleavage kobs at 10000 uM GlcN6P [4] [s⁻¹]
AUAAAAGCGCCUGAACUACAGAAAUGUAGUUGACGAGGAGGAGGGGUAUCGAAUUUUCGGCGGAUGCCUCCAAA [A12U U45G U46G] | 0.000419 ± 0.00015 | 0.00499 ± 0.0017 | – | –
AUAAAAGCGCCAAAACUACAGAAAUGUAGUUGACCAGGAGGAGGUUUAUCGAAUUUUCGGCGGAUGCCUCUAAA [G13A G35C C71U] | < 1e-05 | – | < 1e-05 | –
AUAAAAGCGCCAAAACUACAGAAAUGUAGUUGGCGUGGAUGAGGUUUAUCGAAUAUUCGGCGGAUGCCUCCAAA [G13A A33G A36U G40U U55A] | < 1e-05 | < 1e-05 | < 1e-05 | –
AUAAAAGCGCCAUAACUACAGAAAUGUAGUUGGCGAGGAUGAGGUUUAUCGAAUUUUCGGCGGAUGCCUCCAAA [G13U A33G G40U] | < 1e-05 | – | – | –
AUAAAAGCGCCAUAACUACAGAAAUGUAGUUGACGAGGAGGAGGUUUAUCCAAUUUUCGGCGGAGGCCUCCAAA [G13U G51C U65G] | < 1e-05 | – | < 1e-05 | –
AUAAAAGCGCCACAACUACAGAAAUGUAGUUGACGAGGAGGAGGUCUAUCGAAUUUUCGGCGGAUGCCUCCAAA [G13C U46C] | < 1e-05 | – | < 1e-05 | –
AUAAAAGCGCCACGACUACAGAAAUGUAGUUAACGAGGAGGAGGUUUAUCGAAUUUUCGGCGGAUGCCUCCAAA [G13C A14G G32A] | 0.000606 ± 0.00018 | 0.00874 ± 0.0043 | 0.00264 ± 0.00054 | –
AUAAAAGCGCCACAACUACAGAAAUGUAGUUGACGAGGAGGAGGGUUAUCGAAUUAUCGGCGAACGCCUCCAAA [G13C U45G U56A G63A U65C] | < 1e-05 | < 1e-05 | < 1e-05 | –
AUAAAAGCGCCACAACUACAGAAAUGUAGUUGACGAGGAGGAGCUUUAUCGAAUUUUCGGAGGAUGCCUCCAAA [G13C G44C C61A] | < 1e-05 | – | – | –
AUAAAAGCGCCAGCACUACAGAAAUGUAGUUGACGAGGGGGAGGUUUAUCGAAUUUUGGUCUGAUGCCUCCAAA [A14C A39G C58G G60U G62U] | < 1e-05 | < 1e-05 | – | –
AUAAAAGCGCCACAACUACAGAAAUGUAGUUGACGAGGAGGAGGUUUAUCGAAUUUUUUGCGGAUGCCUCCAAA [G13C C58U G59U] | < 1e-05 | – | – | –
AUAAAAGCGCCAAAACUACAGAAAUGUAGUUGACGAGGAGGAGGUUUAUCGACUUUUCGGCGGAUGGCUCCAAA [G13A A53C C67G] | < 1e-05 | – | < 1e-05 | < 1e-05
AUAAAAGCGCCAAAACUACAGAAAUGUAGUUGAUGAGGAGGAGGUUUAUCGAAUUUUCGGCGGAUGCCUCCAAA [G13A C34U] | < 1e-05 | < 1e-05 | < 1e-05 | –
AUAAAAGCGCCAUAACUACAGAAAUGUAGUUGACGAGGAGGAGGUUUAUGGAAUUUUCAGCGGAUGCCUCCAAA [G13U C50G G59A] | 0.0002 ± 7.6e-05 | – | – | –
AUAAAAGCGCCAUAACUACAGAAAUGUAGUUGACGAGGAGGAGUUUUAUCGAAUUUUCGGCGGAUGCUUCCAAA [G13U G44U C68U] | < 1e-05 | < 1e-05 | < 1e-05 | –
AUAAAAGCGCCACAACUACAGAAAUGUAGUUGACGAGGAGGGGGUUUAUCCAAUUCUCGGCGGAUGACUCCAAA [G13C A42G G51C U56C C67A] | < 1e-05 | < 1e-05 | – | –
AUAAAAGCGCCACAACUACAGAAAUGUAGUGGACGAGGAGGAUGUUUAUCGAAUUUUCGGCGGAUGCCUCCAAA [G13C U31G G43U] | < 1e-05 | < 1e-05 | – | –
AUAAAAGCGCCACAACUACAGAAAUGUAGUUGACGAGGAGGAGGCCUAUCGAAUUUUCGGCGGAUGCAUGCAAA [G13C U45C U46C C68A C70G] | < 1e-05 | < 1e-05 | – | –
AUAAAAGCGCCACAACUACAGAAAUGUAGUUGACGAGGAGGACGUUUAUCGAAUUUUCGGCGGAUGCCUACAAA [G13C G43C C70A] | < 1e-05 | – | – | –

Variant | self-cleavage kobs at 160 uM GlcN6P [1] [s⁻¹] | self-cleavage kobs at 2500 uM GlcN6P [2] [s⁻¹] | self-cleavage kobs at 640 uM GlcN6P [3] [s⁻¹] | self-cleavage kobs at 10000 uM GlcN6P [4] [s⁻¹]
AUAAAAGCGCCAUAACUACAGAAAUGUAGUUGACGAGGAGGAUGUUUAUCGAAUUUUCGGCGGAUGCCUCCAAA [G13U G43U] | < 1e-05 | – | < 1e-05 | < 1e-05
AUAAAAGCGCCAUAACUACAGAAAUGUAGUUGUCGAGGAGGAGGUUUAUCGAAUUUCCGGCGGAUGCCUCCAAA [G13U A33U U57C] | < 1e-05 | – | < 1e-05 | –
AUAAAAGCGCCAAAACUACAGAAAUGUAGUUGACGAGGAGUAGGUUUAACCAAUUUUCGGCGGAUGCCUCCAAA [G13A G41U U49A G51C] | < 1e-05 | – | – | –
AUAAAAGCGCCAUAUCUACAGAAAUGUAGUUGACGCGGAGGGGGUUUAUCGAAUUUUCCGCGGAUGGCUCCAAA [G13U A15U A36C A42G G59C C67G] | < 1e-05 | – | – | –
AUAAAAGCGCCACAACUACAGAAAUGUAGUUGCCGAGGAGUAGGUUUAUCGAAUUCUCGGCGGAUGCCUCCAAA [G13C A33C G41U U56C] | < 1e-05 | < 1e-05 | – | –
AUAAAAGCGCCACAACUACAGAAAUGUAGUUGACGAGGAGGAGGUUUAUCGAUUUUUCAGCGGAUGCCUCUAAA [G13C A53U G59A C71U] | < 1e-05 | < 1e-05 | – | –
AUAAAAGCGCCUGAACUACAGAAAUGUAGUUGACGAGGAGGAGGUUUAUCGAAUUUUCGGCGGAUGCCCCCAAA [A12U U69C] | 0.000492 ± 0.00017 | 0.00211 ± 0.00066 | 0.00151 ± 0.00069 | –
AUAAAAGCGCCUGAACUACAGAAAUGUAGUUGACGAGGAGGAGAUUUAUCGAAUUUUCGGCGGAGGUCUCCAAA [A12U G44A U65G C67U] | 0.000241 ± 6.5e-05 | 0.00188 ± 0.00037 | 0.000969 ± 0.00016 | –
AUAAAAGCGCCAGCACUACAGAAAUGUAGUUGACGAGGAGGAGGUUUAUCGAUUUUUCGGCGGAUGGCUCCAAA [A14C A53U C67G] | 3.21e-05 ± 1.4e-05 | 0.000238 ± 4.6e-05 | 0.000135 ± 2.7e-05 | –
AUAAAAGCGCCUGAACUACAGAAAUGUAGUUGACGAGGAGGAGGUUUAUCGAAUUUUCGUCGGAUGCCUGCAAA [A12U G60U C70G] | < 1e-05 | – | – | –
AUAAAAGCGCCUGAACUACAGAAAUGUAGAUGACGAGGAGGAGGAUUAUCGAUUUUUCGGCCGAUGCCUCCAAA [A12U U30A U45A A53U G62C] | < 1e-05 | < 1e-05 | – | –
AUAAAAGCGCCAAAACUACAGAAAUGUAGUUGGCGAGGAGGAGGUUUAUCGAAUUUUCGGCGCAUGCCUCCAAA [G13A A33G G63C] | < 1e-05 | < 1e-05 | – | –
AUAAAAGCGCCAAAACUACAGAAAUGUAGUUGACGAGGAGGAGUUUUAUCGAAUUUUCGGGGGAAGCCUCCAAA [G13A G44U C61G U65A] | < 1e-05 | < 1e-05 | < 1e-05 | –
AUAAAAGCGCCACAAGUACAGAAAUGUAGUUGACGAGAAGGAGGUUUAUCGAAUUUUCGGCGGAUGCCUCCAAA [G13C C16G G38A] | < 1e-05 | – | – | –
AUAAAAGCGCCAGCACUACAGAAAUGUAGUUGACGUGCGGGAGGUUUAUCGAAUUUUCGGCGGAUGCCUCCAAA [A14C A36U G38C A39G] | < 1e-05 | < 1e-05 | – | –
AUAAAAGCGCCAAAACUACAGAAAUGUAGUUGACGAGGAGGAGGUUUAUCAAAUUUUCGGCGGAUGCCUACAAA [G13A G51A C70A] | 6.55e-05 ± 2.4e-05 | – | – | –
AUAAAAGCGCCAUAACUACAGAAAUGUAGUUGACGGGGAGGAAGUUUAUCGAAUUUUCGGCGGAUCCCUACAAA [G13U A36G G43A G66C C70A] | < 1e-05 | < 1e-05 | < 1e-05 | –
AUAAAAGCGCCAUAACUACAGAAAUGUAGUUGACGAGUAGGAGGUUUAUCGAAUUUUCGGCGGAGGCCUCCAAA [G13U G38U U65G] | < 1e-05 | – | – | –

Source: the supplement of paper PMC7125110
